This is an account of results in paper PMC9123286 (The Journal of Cell Biology, 2022).

The target in test [1] is T1, Get3 D57E-TEV-GFP (S. cerevisiae, UniProt Q12154 1-354, D57E).
T1 construct: Get3, cytosolic ATPase of the GET pathway, S. cerevisiae; ATPase-impaired client trap variant D57E; Captured on anti-GFP beads and eluted by TEV cleavage; the oligomeric state in the lysate was not measured; also called Get3 DE; Get3 D57E (DE); source: yeast (BY4741 background), ectopically expressed, in lysate made without detergent; not shown: TEV site-GFP, C-terminal, kept
T1 sequence (looked up): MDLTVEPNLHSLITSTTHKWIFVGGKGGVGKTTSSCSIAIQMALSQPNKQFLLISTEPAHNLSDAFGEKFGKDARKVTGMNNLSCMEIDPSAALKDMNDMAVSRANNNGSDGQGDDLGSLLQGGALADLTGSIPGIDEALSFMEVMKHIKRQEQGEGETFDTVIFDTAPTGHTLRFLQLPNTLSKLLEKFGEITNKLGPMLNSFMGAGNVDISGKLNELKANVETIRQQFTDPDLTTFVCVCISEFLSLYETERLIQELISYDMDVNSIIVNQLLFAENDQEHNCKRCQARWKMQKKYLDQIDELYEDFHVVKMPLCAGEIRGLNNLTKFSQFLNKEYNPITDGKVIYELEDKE
Description: co-IP; lysates from Δget3 cells ectopically expressing Get3 DE-TEV-GFP and HA-tagged Erg1 full length, ΔC, Δα1 or Δα2; anti-GFP MicroBeads, no detergent, TEV elution; immunoblot, signal normalised to Get3 in the eluate and to the input. Background: Immunoblotting shows a protein as a band on a membrane.

For test [2], the target named is T1, Get3 D57E-TEV-GFP. Description: co-IP; lysates from cells expressing HA–Erg1 (endogenous promoter) and Get3 DE–TEV–GFP or Get3 DE FIDD–TEV–GFP; anti-GFP MicroBeads, no detergent, TEV elution; immunoblot, signal normalised to Get3 in the eluate and to the input. Particulars: partners not purified.

As to “N-terminally HA-tagged Erg1 lacking the second predicted helix of the C-terminal hairpin (Δα2) (from UniProt P32476 1-496) (enzyme)”, the percent reduction of Get3 binding against full-length HA–Erg1 with Get3 D57E-TEV-GFP [1] was determined as 95%.

B1: N-terminally HA-tagged Erg1 (full length) (enzyme, S. cerevisiae, UniProt P32476 1-496, looked up)
chain: MSAVNVAPELINADNTITYDAIVIGAGVIGPCVATGLARKGKKVLIVERDWAMPDRIVGELMQPGGVRALRSLGMIQSINNIEAYPVTGYTVFFNGEQVDIPYPYKADIPKVEKLKDLVKDGNDKVLEDSTIHIKDYEDDERERGVAFVHGRFLNNLRNITAQEPNVTRVQGNCIEILKDEKNEVVGAKVDIDGRGKVEFKAHLTFICDGIFSRFRKELHPDHVPTVGSSFVGMSLFNAKNPAPMHGHVILGSDHMPILVYQISPEETRILCAYNSPKVPADIKSWMIKDVQPFIPKSLRPSFDEAVSQGKFRAMPNSYLPARQNDVTGMCVIGDALNMRHPLTGGGMTVGLHDVVLLIKKIGDLDFSDREKVLDELLDYHFERKSYDSVINVLSVALYSLFAADSDNLKALQKGCFKYFQRGGDCVNKPVEFLSGVLPKPLQLTRVFFAVAFYTIYLNMEERGFLGLPMALLEGIMILITAIRVFTPFLFGELIG
notes: Erg1, squalene monooxygenase, S. cerevisiae; also called HA–Erg1; source: yeast, expressed from the endogenous ERG1 promoter (genomic) or ectopically in Δget3 cells, in lysate; not shown: HA, N-terminal, kept
In the case of B1, the “fold enrichment against Get3 DE FIDD” value in the test with Get3 D57E-TEV-GFP [2] amounted to 5 fold.
